# Assay results published in patent publication US20240317851A1 (LANOVA MEDICINES, published 2024).
# Positions count from the first letter of the chain named.
# T1: human Claudin 3 (human, UniProt O15551 1-220)
# T1 construct: whole, on cells; also called CLDN3
# T1 sequence (looked up): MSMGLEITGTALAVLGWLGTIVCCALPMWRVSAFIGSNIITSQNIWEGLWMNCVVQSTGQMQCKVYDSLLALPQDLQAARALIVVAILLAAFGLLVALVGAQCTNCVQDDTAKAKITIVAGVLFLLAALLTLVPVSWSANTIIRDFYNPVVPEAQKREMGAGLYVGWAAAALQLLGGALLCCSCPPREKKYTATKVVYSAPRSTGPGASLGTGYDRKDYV
# T2: human Claudin 6 (human, UniProt P56747 1-220)
# T2 construct: whole, on cells; also called CLDN6
# T2 sequence (looked up): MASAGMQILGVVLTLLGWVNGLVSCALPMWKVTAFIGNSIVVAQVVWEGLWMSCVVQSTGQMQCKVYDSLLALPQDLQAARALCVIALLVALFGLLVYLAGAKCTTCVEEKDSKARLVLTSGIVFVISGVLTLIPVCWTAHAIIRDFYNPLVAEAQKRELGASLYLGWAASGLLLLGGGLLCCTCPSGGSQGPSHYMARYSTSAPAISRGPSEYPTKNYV
# T3: human Claudin 9 (human, UniProt O95484 1-217)
# T3 construct: whole, on cells; also called CLDN9; CLND9
# T3 sequence (looked up): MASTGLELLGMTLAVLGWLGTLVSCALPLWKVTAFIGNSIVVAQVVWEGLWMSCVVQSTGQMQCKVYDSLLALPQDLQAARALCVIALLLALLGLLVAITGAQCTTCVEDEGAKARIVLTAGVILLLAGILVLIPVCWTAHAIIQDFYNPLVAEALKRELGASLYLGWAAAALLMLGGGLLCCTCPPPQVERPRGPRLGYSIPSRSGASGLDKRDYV
# B1: 97-C10E1-2-P1.z3 (antibody, V domains shown)
# VH: QVQLVQSGAEVKKPGASVKVSCKASGYAFTGYTMNWVRQAPGQGLEWIGLSNPYNAGTIYNQKFKGRVTMTVDKSTSTVYMELSSLRSEDTAVYYCARNYYYGSSYAYYYAMDYWGQGTTVTVSS
# VL: DAQMTQSPSSLSASVGDRVTITCRSSTGAVTTSNYANWVQQKPGKAPKLLIGGTNNRAPGVPSRFSGSGSGTDATLTISSLQPEDFATYYCALWYSNHWVFGGGTKVEIK
# B2: 97-C10E1-2-P1.z6 (antibody, V domains shown)
# VH: B1 VH with V5Q, G44N, M70L, S84L
# VL: EAVMTQSPATLSVSPGERATLSCRSSTGAVTTSNYANWVQQKPGQAPRLLIGGTNNRAPGIPARFSGSGSGDEATLTISSLQSEDFAVYFCALWYSNHWVFGGGTKVEIK
# B3: 97-C10E1-2-P1.z14 (antibody, V domains shown)
# VH: B1 VH with V5Q, V18M, V20I, G44N, V68A, M70L, V79A, S84L
# VL: B1 VL with P47F, L49G, S63A, G69L, T75A, Y90F
# B4: 97-C10E1-2-P1.z2 (antibody, V domains shown)
# VH: B1 VH
# VL: B2 VL with M4V, Q41E, P47F, L49G, G69L
# B5: 97-C10E1-2-P1.z1 (antibody, V domains shown)
# VH: B1 VH
# VL: B2 VL
# B6: 97-C10E1-2-P1.z11 (antibody, V domains shown)
# VH: B1 VH with V5Q, V18M, V20I, G44N, V68A, M70L, V79A, S84L
# VL: B2 VL
# B7: 97-C10E1-2-P1.z13 (antibody, V domains shown)
# VH: B1 VH with V5Q, V18M, V20I, G44N, V68A, M70L, V79A, S84L
# VL: B1 VL
# B8: 97-C10E1-2-P1.z15 (antibody, V domains shown)
# VH: B1 VH with V5Q, V18M, V20I, G44N, V68A, M70L, V79A, S84L
# VL: DIVVTQSPSSLSTSVGDRVTITCRSSTGAVTTSNYANWVQEKPGKAFKGLIGGTNNRAPGVPARFSGSLSGDDAALTISSAQPEDFATYFCALWYSNHWVFGGGTKVEIK
# B9: 97-C10E1-2-P1.z8 (antibody, V domains shown)
# VH: B1 VH with V5Q, G44N, M70L, S84L
# VL: B1 VL
# B10: 97-C10E1-2-P1.z10 (antibody, V domains shown)
# VH: B1 VH with V5Q, G44N, M70L, S84L
# VL: B8 VL
# B11: 97-C10E1-2-P1.z12 (antibody, V domains shown)
# VH: B1 VH with V5Q, V18M, V20I, G44N, V68A, M70L, V79A, S84L
# VL: B2 VL with M4V, Q41E, P47F, L49G, G69L
# B12: 97-C10E1-2-P1.z5 (antibody, V domains shown)
# VH: B1 VH
# VL: B8 VL
# notes: also called candidate antibody
# B13: z5-DXD (antibody, V domains shown)
# VH: B1 VH
# VL: B8 VL
# modifications: DXD conjugated to the antibody; residues and drug load not stated
# B14: z5-LM-D03 (antibody, V domains shown)
# VH: B1 VH
# VL: B8 VL
# modifications: LM-D03 conjugated to the antibody (structure only as a drawing); residues and drug load not stated
# B15: z5-LM-D01 (antibody, V domains shown)
# VH: B1 VH
# VL: B8 VL
# modifications: LM-D01 conjugated to the antibody (structure only as a drawing); residues and drug load not stated
# Target: T1, human Claudin 3
# Experiment: flow cytometry, CHOK1/H_CLDN3 cells, Ab titrated from 100 nM
# Procedure: (§1) In this example, cell-based binding of hu Abs on human CLDN3 expressing cells were assessed using flow cytometry.
# (§2) Briefly, the CHOK1/H_CLDN3 cells were incubated with hu-Abs (from 100 nM, 6 folds dilution, 8 points). After incubation at 4° C. for 60 minutes. Cells were pelleted and washed twice with 2% FBS/PBS buffer, and stained with fluorescent conjugated secondary antibody at 4° C. for 30 minutes. After that the cells were washed twice and resuspended in 80 μL of 2% FBS/PBS buffer. Fluorescent signal of binding was detected using Agilent. The EC50 was calculated using the GraphPad software.
row,Top MFI,Binder
1,133,B1
2,139,B2
3,158,B3
4,247,B4
5,136,B5
6,118,B6
7,131,B7
8,138,B8
9,137,B9
10,160,B10
11,130,B11
12,254,B12

# Target: T2, human Claudin 6
# Experiment: flow cytometry, HEK293/H_CLDN6 cells, Ab titrated from 100 nM
# Procedure: In this example, cell-based binding of humanized antibodies (hu Abs) on human CLDN6 expressing cells were assessed using flow cytometry.
# as §2, with “HEK293/H_CLDN6” for “CHOK1/H_CLDN3”
row,Top MFI,Binder
1,27400,B1
2,32200,B2
3,115000,B3
4,207000,B4
5,45100,B5
6,31000,B6
7,15500,B7
8,128000,B8
9,16300,B9
10,121000,B10
11,107000,B11

# Target: T1, human Claudin 3
# Experiment: flow cytometry, CHOK1/H_CLDN3 cells
# Procedure: as §1, §2
row,Binder,binding result
1,B1,no binding (tested: 100 nM (highest concentration tested))
2,B2,no binding (tested: 100 nM (highest concentration tested))
3,B3,no binding (tested: 100 nM (highest concentration tested))
4,B4,no binding (tested: 100 nM (highest concentration tested))
5,B5,no binding (tested: 100 nM (highest concentration tested))
6,B6,no binding (tested: 100 nM (highest concentration tested))
7,B7,no binding (tested: 100 nM (highest concentration tested))
8,B8,no binding (tested: 100 nM (highest concentration tested))
9,B9,no binding (tested: 100 nM (highest concentration tested))
10,B10,no binding (tested: 100 nM (highest concentration tested))
11,B11,no binding (tested: 100 nM (highest concentration tested))
12,B12,no binding (tested: 100 nM (highest concentration tested))

# Target: T3, human Claudin 9
# Experiment: flow cytometry, HEK293/H_CLDN9 cells
# Procedure: In this example, cell-based binding of z5 toward human CLDN9 engineering expressing cells were assessed using flow cytometry.
# as §2, with “2 cell lines” for “the CHOK1/H_CLDN3 cells”, “antibodies” for “hu-Abs”, “points)” for “points). After incubation”
row,Binder,binding result
1,B1,no binding (tested: 100 nM (highest concentration tested))
2,B2,no binding (tested: 100 nM (highest concentration tested))
3,B3,no binding (tested: 100 nM (highest concentration tested))
4,B5,no binding (tested: 100 nM (highest concentration tested))
5,B6,no binding (tested: 100 nM (highest concentration tested))
6,B7,no binding (tested: 100 nM (highest concentration tested))
7,B8,no binding (tested: 100 nM (highest concentration tested))
8,B9,no binding (tested: 100 nM (highest concentration tested))
9,B10,no binding (tested: 100 nM (highest concentration tested))
10,B11,no binding (tested: 100 nM (highest concentration tested))

# Target: T3, human Claudin 9
# Experiment: flow cytometry, HEK293/H_CLDN9 cells, Ab titrated from 100 nM
# Procedure: In this example, cell-based binding of hu Abs on human CLDN9 expressing cells were assessed using flow cytometry.
# as §2, with “HEK293/H_CLDN9” for “CHOK1/H_CLDN3”, “software (LaJolla, CA).” for “software.”
row,Top MFI,Binder
1,594,B1
2,417,B2
3,661,B3
4,2520,B4
5,479,B5
6,287,B6
7,315,B7
8,186,B8
9,542,B9
10,258,B10
11,149,B11
12,1560,B12

# Target: T2, human Claudin 6
# Experiment: cell-based or functional assay
Binder,"Min cell viability, OV90 (CLDN6 low) [%]","Min cell viability, OVCAR-3 (CLDN6 mid) [%]","Min cell viability, PA-1 (CLDN6 high) [%]"
B13,90.5,24.5,14.1
B14,30.4,20.3,12.1
B15,87.9,0.2,7.75
